Assay results as given in US20250353926A1.

Target: PSMA expressed on target cells (PC3pip cells, high density; 22Rv1 cells, low density) (UniProt Q04609)
Test: cell-based or functional assay

PSMA expressed on target cells (PC3pip cells, high density; 22Rv1 cells, low density), sequence (Q04609 whole entry): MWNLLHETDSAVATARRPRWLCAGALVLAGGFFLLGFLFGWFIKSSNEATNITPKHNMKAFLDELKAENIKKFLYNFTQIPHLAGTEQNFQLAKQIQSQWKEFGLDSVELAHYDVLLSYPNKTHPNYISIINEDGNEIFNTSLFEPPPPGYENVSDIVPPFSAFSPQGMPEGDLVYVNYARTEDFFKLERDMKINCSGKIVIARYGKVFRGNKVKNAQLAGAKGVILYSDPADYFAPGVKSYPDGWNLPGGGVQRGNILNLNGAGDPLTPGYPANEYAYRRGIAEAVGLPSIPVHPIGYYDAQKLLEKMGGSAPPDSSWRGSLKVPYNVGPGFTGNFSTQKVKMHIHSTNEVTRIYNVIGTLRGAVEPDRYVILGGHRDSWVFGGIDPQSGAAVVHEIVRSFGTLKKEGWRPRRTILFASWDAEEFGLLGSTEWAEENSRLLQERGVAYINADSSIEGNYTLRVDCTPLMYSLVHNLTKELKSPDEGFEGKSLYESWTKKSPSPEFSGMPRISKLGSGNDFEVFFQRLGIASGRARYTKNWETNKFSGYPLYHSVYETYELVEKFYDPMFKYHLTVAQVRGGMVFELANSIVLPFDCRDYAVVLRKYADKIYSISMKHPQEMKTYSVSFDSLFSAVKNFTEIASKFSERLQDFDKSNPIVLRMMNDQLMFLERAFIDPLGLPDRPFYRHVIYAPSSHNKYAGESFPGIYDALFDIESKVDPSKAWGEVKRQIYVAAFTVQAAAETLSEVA

EC50; ADCC luciferase reporter assay (Jurkat CD16a V158 reporter cells), PC3pip 24 h continuous: 0.16 nM
EC50; ADCC reporter assay, 22Rv1 4 h washout, 24 h endpoint: > 500 nM
EC50; ADCC reporter assay, PC3pip 4 h washout, 24 h endpoint: 0.044 nM
Substance: monoclonal anti-PSMA antibody, J591
